According to US20250161356A1 (UNIVERSITY OF MELBOURNE, published 2025):

B8: BTN2A1 ectodomain homodimer (disulfide-linked, with C-terminal Cys247 and leucine zippers) (ligand, human, UniProt Q7KYR7 29-248, looked up)
chain: QFIVVGPTDPILATVGENTTLRCHLSPEKNAEDMEVRWFRSQFSPAVFVYKGGRERTEEQMEEYRGRTTFVSKDISRGSVALVIHNITAQENGTYRCYFQEGRSYDEAILHLVVAGLGSKPLISMRGHEDGGIRLECISRGWYPKPLTVWRDPYGGVAPALKEVSMPDADGLFMVTTAVIIRDKSVRNMSCSINNTLLGQKKESVIFIPESFMPSVSPCA
notes: extracellular domain; One copy carries the acidic, the other the basic zipper; also called immobilised BTN2A1 ectodomain homodimer; BTN2A1 homodimer; not shown: acidic or basic leucine zipper and C-terminal AviTag/His tags
B10: soluble BTN3A1 ectodomain (IgV-IgC), homodimer (ligand)
chain: not shown
notes: extracellular domain; Soluble analyte or immobilised ligand in SPR; streptavidin-PE tetramer in staining; also called BTN3A1 ectodomain homodimer; BTN3A1 tetramer; not shown: C-terminal biotin ligase (AviTag) and His tags

Assays:
[1] = target: T1, BTN2A1 on transfected cells (human, UniProt Q7KYR7 29-527); experiment: FRET between anti-BTN2A1 (259) and anti-BTN3A (103.2) mAbs on NIH-3T3 cells co-expressing BTN2A1 WT and the BTN3A1 mutant (association in cis)
T1 construct: Expressed from pMIG in NIH-3T3 or HEK293T cells; also called BTN2A1+ cells; BTN2A1 WT
T1 sequence: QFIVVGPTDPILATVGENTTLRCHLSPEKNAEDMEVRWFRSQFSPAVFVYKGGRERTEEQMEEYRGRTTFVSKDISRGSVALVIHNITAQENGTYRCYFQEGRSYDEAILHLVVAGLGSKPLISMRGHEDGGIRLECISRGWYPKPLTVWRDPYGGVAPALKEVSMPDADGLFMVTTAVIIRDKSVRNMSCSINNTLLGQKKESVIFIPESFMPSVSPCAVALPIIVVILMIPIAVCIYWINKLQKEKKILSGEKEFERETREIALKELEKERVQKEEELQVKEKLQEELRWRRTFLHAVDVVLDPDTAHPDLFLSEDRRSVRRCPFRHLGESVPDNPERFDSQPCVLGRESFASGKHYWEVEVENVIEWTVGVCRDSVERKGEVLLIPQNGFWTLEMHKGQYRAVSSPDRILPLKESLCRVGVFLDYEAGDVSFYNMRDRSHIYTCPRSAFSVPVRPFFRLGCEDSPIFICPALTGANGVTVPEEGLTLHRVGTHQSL

[2] = target: T2, 9C2 Vγ5Vδ1+ γδTCR on transfected HEK293T cells; experiment: flow cytometry, tetramer-PE versus CD3-APC on HEK293T cells co-transfected with CD3 and 9C2 TCR; SAv ctl 26
T2 construct: Control TCR, co-transfected with CD3; also called 9C2 TCR (Control)

[3] = target: B10; experiment: SPR, soluble BTN3A1 ectodomain over immobilised BTN2A1 homodimer, equilibrium analysis, ± SEM
[4] = target: B10; experiment: SPR, soluble BTN3A1 IgV domain over immobilised BTN3A1 homodimer
[5] = target: B8; experiment: SPR, soluble BTN3A1 IgV domain over immobilised BTN2A1 homodimer, equilibrium analysis, ± SEM
[6] = target: B8; experiment: SPR, soluble BTN2A1 ectodomain over immobilised BTN2A1 ectodomain homodimer
[7] = target: B10; experiment: SPR, soluble BTN2A1 ectodomain over immobilised BTN3A1 homodimer, equilibrium analysis
[8] = target: B10; experiment: SPR, soluble BTN2A1 ectodomain over immobilised BTN3A1 homodimer, equilibrium analysis, ± SEM

B1: BTN3A1 Arg44-Ala on transfected NIH-3T3 cells (ligand)
chain: not shown
notes: whole, on cells; Position counts the mature protein
B1: no binding [1].

B2: BTN3A1 Tyr105-Ala on transfected NIH-3T3 cells (ligand)
chain: not shown
notes: as for B1
B2: no binding [1].

B3: BTN3A1 Tyr98-Phe on transfected NIH-3T3 cells (ligand)
chain: not shown
notes: as for B1
B3: no binding [1].

B4: BTN3A1 Glu106-Ala on transfected NIH-3T3 cells (ligand)
chain: not shown
notes: as for B1
B4: no binding [1].

B5: BTN3A1 Leu96-Ala on transfected NIH-3T3 cells (ligand)
chain: not shown
notes: as for B1
B5: no binding [1].

B6: BTN3A1 Tyr98-Ala on transfected NIH-3T3 cells (ligand)
chain: not shown
notes: as for B1
B6: no binding [1].

B7: BTN2A1 ectodomain tetramer (streptavidin-PE) (ligand, human, UniProt Q7KYR7 29-248, looked up)
chain: QFIVVGPTDPILATVGENTTLRCHLSPEKNAEDMEVRWFRSQFSPAVFVYKGGRERTEEQMEEYRGRTTFVSKDISRGSVALVIHNITAQENGTYRCYFQEGRSYDEAILHLVVAGLGSKPLISMRGHEDGGIRLECISRGWYPKPLTVWRDPYGGVAPALKEVSMPDADGLFMVTTAVIIRDKSVRNMSCSINNTLLGQKKESVIFIPESFMPSVSPCA
notes: extracellular domain; biotinylated at a C-terminal AviTag; also called BTN2A1 tetramer
With B7 the “median fluorescence of PE” value [2] was 25.

Work on B8 yielded a Kd [3] of 0.5 mM.

B9: BTN2A1-BTN3A1-zipper ectodomain complex (wild type) (other)
chain 1: QFIVVGPTDPILATVGENTTLRCHLSPEKNAEDMEVRWFRSQFSPAVFVYKGGRERTEEQMEEYRGRTTFVSKDISRGSVALVIHNITAQENGTYRCYFQEGRSYDEAILHLVVAGLGSKPLISMRGHEDGGIRLECISRGWYPKPLTVWRDPYGGVAPALKEVSMPDADGLFMVTTAVIIRDKSVRNMSCSINNTLLGQKKESVIFIPESFMPSVSPCA
chain 2: not shown
notes: extracellular domain; Immobilised in SPR; streptavidin-PE tetramer in staining; also called BTN2A1-BTN3A1 complex; BTN2A1-BTN3A1 heteromer; not shown: acid zipper (AZ)-His6; basic zipper (BZ)-biotin ligase tag
B9 was tested, and the “median fluorescence of PE” value [2] was 52.

B10 was tested, and the “median fluorescence of PE” value [2] was 28.

B11: monomeric BTN3A1 IgV domain (ligand)
chain: not shown
notes: domain: IgV; not shown: C-terminal biotin ligase (AviTag) and His tags
For B11, the binding result [4] was “no binding (tested: 1,590 µM)” and the Kd [5] was 1.1 mM.

B12: soluble BTN2A1 ectodomain lacking Cys247 (monomeric) (ligand, human, UniProt Q7KYR7 29-246, looked up)
chain: QFIVVGPTDPILATVGENTTLRCHLSPEKNAEDMEVRWFRSQFSPAVFVYKGGRERTEEQMEEYRGRTTFVSKDISRGSVALVIHNITAQENGTYRCYFQEGRSYDEAILHLVVAGLGSKPLISMRGHEDGGIRLECISRGWYPKPLTVWRDPYGGVAPALKEVSMPDADGLFMVTTAVIIRDKSVRNMSCSINNTLLGQKKESVIFIPESFMPSVSP
notes: extracellular domain; also called soluble monomeric BTN2A1 ectodomain; full-length BTN2A1 ectodomain; not shown: C-terminal biotin ligase (AviTag) and His tags
B12 was tested, and the binding result [6] was “no binding”, the Kd [7] was about 1.8 mM and the Kd [8] was 1.8 mM.
